Article PMC3556779

Target: FKBP1A (UniProt P62942)
Assay: co-precipitation from transfected Jurkat cells
Details: reference: WT TGFβRI; sites T200

In the case of “TGFβRI (from UniProt P36897) T200V TGFβRI”, the “binding against the reference” value is reported as “stronger”.
